First the molecules themselves.
B1: Influenza virus NS1A-binding protein (Homo sapiens), Q9Y6Y0 (parent)
chain: MIPNGYLMFEDENFIESSVAKLNALRKSGQFCDVRLQVCGHEMLAHRAVLACCSPYLFEIFNSDSDPHGISHVKFDDLNPEAVEVLLNYAYTAQLKADKELVKDVYSAAKKLKMDRVKQVCGDYLLSRMDVTSCISYRNFASCMGDSRLLNKVDAYIQEHLLQISEEEEFLKLPRLKLEVMLEDNVCLPSNGKLYTKVINWVQRSIWENGDSLEELMEEVQTLYYSADHKLLDGNLLDGQAEVFGSDDDHIQFVQKKPPRENGHKQISSSSTGCLSSPNATVQSPKHEWKIVASEKTSNNTYLCLAVLDGIFCVIFLHGRNSPQSSPTSTPKLSKSLSFEMQQDELIEKPMSPMQYARSGLGTAEMNGKLIAAGGYNREECLRTVECYNPHTDHWSFLAPMRTPRARFQMAVLMGQLYVVGGSNGHSDDLSCGEMYDSNIDDWIPVPELRTNRCNAGVCALNGKLYIVGGSDPYGQKGLKNCDVFDPVTKLWTSCAPLNIRRHQSAVCELGGYLYIIGGAESWNCLNTVERYNPENNTWTLIAPMNVARRGAGVAVLNGKLFVCGGFDGSHAISCVEMYDPTRNEWKMMGNMTSPRSNAGIATVGNTIYAVGGFDGNEFLNTVEVYNLESNEWSPYTKIFQF

The results in this text go back to IntAct's records for PubMed 25619834.

Variants of B1 are the subject of the test. The conditions noted are these: with cul3_human CUL3, Q13618.
With M114L, the “effect of a mutation on the interaction” value is on record as “causing an interaction”.
As to F75L, the “effect of a mutation on the interaction” value is given as “causing an interaction”.
